Where two headings read alike, the source gives them in different places.

The target of one data set is T1, GBS Rex (Gbs1167) (Streptococcus agalactiae, UniProt Q8E565).
T1 construct: native Rex from pET101-Strex in E. coli TUNER (DE3), no tag used in purification; apo form eluted from 5' AMP-Sepharose; homodimer
Put plainly: isothermal titration calorimetry, one-site fit. It is filed as binding. From the text: isothermal titration calorimetry, one-site fit on GBS Rex (Gbs1167)

Data set [1] concerns the target T2, Rex (Gbs1167) (Streptococcus agalactiae NEM316, UniProt Q8E565 1-212).
T2 sequence: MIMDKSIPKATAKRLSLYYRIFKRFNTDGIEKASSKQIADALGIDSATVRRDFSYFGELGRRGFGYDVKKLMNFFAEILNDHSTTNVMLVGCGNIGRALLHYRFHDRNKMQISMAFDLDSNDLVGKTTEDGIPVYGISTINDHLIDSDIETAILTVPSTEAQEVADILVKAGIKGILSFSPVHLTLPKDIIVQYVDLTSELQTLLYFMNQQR
Nature of the data set: ITC and EMSA. The conditions noted are these: apo Rex in ITC; n = 2.2 +/- 0.2 (one dimer per DNA); EMSA: 20 mM Tris pH 8.0, 1 mM EDTA, 75 mM KCl, 1 mM DTT, 10 ug/ml BSA, 10% glycerol, 30 C, 20 min, 30 nM DNA (promoter fragments). ITC: 100 mM potassium ….

Data set [2] concerns the target T2, Rex (Gbs1167). Nature of the data set: ITC. To be noted: NAD+; EMSA: 20 mM Tris pH 8.0, 1 mM EDTA, 75 mM KCl, 1 mM DTT, 10 ug/ml BSA, 10% glycerol, 30 C, 20 min, 30 nM DNA (promoter fragments). ITC: 100 mM potassium …. (In general: A gel shift assay detects complexes by their altered migration in electrophoresis.)
In data set [3] the target is T2, Rex (Gbs1167). Put plainly: EMSA; EMSA: 20 mM Tris pH 8.0, 1 mM EDTA, 75 mM KCl, 1 mM DTT, 10 ug/ml BSA, 10% glycerol, 30 C, 20 min, 30 nM DNA (promoter fragments). ITC: 100 mM potassium phosphate pH 7.5, 25 C. Crystals: 25% PEG 1500, MIB buffer pH 5.0, 20 C. To be noted: protein: recombinant; tags: none (native, pET101-Strex); chain copies: 2; label: 32P; (only forward strand given).

Data set [4] addresses T2, Rex (Gbs1167). Nature of the data set: EMSA; same as native ldh operator; EMSA: 20 mM Tris pH 8.0, 1 mM EDTA, 75 mM KCl, 1 mM DTT, 10 ug/ml BSA, 10% glycerol, 30 C, 20 min, 30 nM DNA (promoter fragments). ITC: 100 mM potassium phosphate pH 7.5, 25 C. Crystals: 25% PEG 1500, MIB buffer pH 5.0, 20 C. The conditions noted are these: protein: recombinant; tags: none (native, pET101-Strex); chain copies: 2; label: 32P; (only forward strand given).

The data set “crystal structure” concerns the molecule itself. Nature of the data set: crystal structure.
The target of data set [5] is T2, Rex (Gbs1167). Nature of the data set: X-ray crystallography (2.4 A); NAD+; Mg2+ ion located; EMSA: 20 mM Tris pH 8.0, 1 mM EDTA, 75 mM KCl, 1 mM DTT, 10 ug/ml BSA, 10% glycerol, 30 C, 20 min, 30 nM DNA (promoter fragments). ITC: 100 mM potassium phosphate pH 7.5, 25 C. Crystals: 25% PEG 1500, MIB buffer pH 5.0, 20 C. The conditions noted are these: protein: recombinant; tags: none (native, pET101-Strex); chain copies: 2; blunt; self-complementary, 2 strand copies.

On GBS Rex (Gbs1167), `NC(=O)C1=CN([C@@H]2O[C@H](COP(=O)(O)OP(=O)(O)OC[C@H]3O[C@@H](n4cnc5c(N)ncnc54)[C@H](O)[C@@H]3O)[C@@H](O)[C@H]2O)C=CC1` [NADH] showed a Kd of 0.357 µM. Same read-out and setting: then `NC(=O)c1ccc[n+]([C@@H]2O[C@H](COP(=O)(O)OP(=O)(O)OC[C@H]3O[C@@H](n4cnc5c(N)ncnc54)[C@H](O)[C@@H]3O)[C@@H](O)[C@H]2O)c1` [NAD^+], with 76.9 µM; and `NC(=O)C1=CN([C@@H]2O[C@H](COP(=O)(O)OP(=O)(O)OC[C@H]3O[C@@H](n4cnc5c(N)ncnc54)[C@H](OP(=O)(O)O)[C@@H]3O)[C@@H](O)[C@H]2O)C=CC1` [NADPH], with 143 µM. With “ROP-DNA used in ITC (sequence not specified)”, the Kd in the data set with Rex (Gbs1167) [1] worked out at 0.03 µM. The binding signal (fold affinity vs apo Rex) with Rex (Gbs1167) [2] was 1.35. On to `Nc1ncnc2c1ncn2[C@@H]1O[C@H](COP(=O)(O)OP(=O)(O)OP(=O)(O)O)[C@@H](O)[C@H]1O` [ATP], for which the Kd at GBS Rex (Gbs1167) (read-out: Ka (M^-1)^a x 10^-6 (converted)) was 250 µM.

B1: ldh operator 28 bp (dsDNA)
DNA 1: TTTGTTTGCAAATTTTTTCACATTTTAT
DNA 2: ATAAAATGTGAAAAAATTTGCAAACAAA
For the molecule B1, the binding result with Rex (Gbs1167) [3] is reported as “binds”.

B2: ldh_m3 (C9T, A10G) (dsDNA)
DNA 1: TTTGTTTGTGAATTTTTTCACATTTTAT
DNA 2: ATAAAATGTGAAAAAATTCACAAACAAA
With B2, the binding result in the data set with Rex (Gbs1167) [4] is given as “binds”.

B3: Streptococcus agalactiae (GBS) strain NEM316 redox-sensing transcriptional repressor Rex (Gbs1167) (natural protein, Streptococcus agalactiae strain NEM316)
chain: T2 sequence
notes: also called GBS Rex; native Rex; source: E. coli TUNER (DE3), pET101-Strex, purified (Q-Sepharose, Superdex 75, 5' AMP-Sepharose 4B)
Turning to B3, the stoichiometry N (usually the number of molecules, sites or subunits per partner or assembly) in “crystal structure” was 2.

B4: ldh_m2 (C19T, C21T) (dsDNA)
DNA 1: TTTGTTTGCAAATTTTTTTATATTTTAT
DNA 2: ATAAAATATAAAAAAATTTGCAAACAAA
As for B4, the binding result with Rex (Gbs1167) [3] is listed as “no binding”.

B5: ROP 22-mer palindrome (dsDNA)
DNA 1: AATTGTGAAATATTTCACAATT
DNA 2: AATTGTGAAATATTTCACAATT
Turning to B5, the binding result with Rex (Gbs1167) [5] is listed as “binds”.

(Values after publication PMC8376106, “NAD^+ pool depletion as a signal for the Rex regulon involved in Streptococcus agalactiae virulence” (PLoS Pathogens, 2021).)
